Measurements published in the supplement of paper PMC9112550, “Optimization of the antimicrobial peptide Bac7 by deep mutational scanning” (BMC Biology, 2022).

test system: Escherichia coli TOP10; assay: shrunken log2 fold change of peptide-encoding DNA abundance (4.5 h post-induction vs induction); higher = less antimicrobial activity (less host growth inhibition); conditions: time post-induction: 4.5 h; library: site-saturation at positions 5, 18, 19, 20
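Also: peptides expressed intracellularly from a pBAD plasmid library in pooled LB shake-flask culture, induced with 0.3% L-arabinose, DNA abundance read by NGS, three biological replicates, DESeq2 with apeglm shrinkage.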

Sequence | shrunken log2 fold change
RRIRSRPPRLPRPRPRPLHYPRP | -0.908
RRIRSRPPRLPRPRPRPLICPRP | -0.221
RRIRSRPPRLPRPRPRPLIWPRP | 0.312
RRIRSRPPRLPRPRPRPLKEPRP | 0.176
RRIRSRPPRLPRPRPRPLLAPRP | 0.602
RRIRSRPPRLPRPRPRPLLFPRP | -0.129
RRIRSRPPRLPRPRPRPLLVPRP | 0.0795
RRIRSRPPRLPRPRPRPLMAPRP | 0.000235
RRIRSRPPRLPRPRPRPLMDPRP | -0.00235
RRIRSRPPRLPRPRPRPLMEPRP | -0.0249
RRIRSRPPRLPRPRPRPLPAPRP | 0.494
RRIRSRPPRLPRPRPRPLPHPRP | 0.277
RRIRSRPPRLPRPRPRPLPMPRP | 0.256
RRIRSRPPRLPRPRPRPLPTPRP | 0.446
RRIRSRPPRLPRPRPRPLSVPRP | -0.0334
RRIRSRPPRLPRPRPRPLTPPRP | 0.166
RRIRSRPPRLPRPRPRPLTSPRP | 1.55
RRIRSRPPRLPRPRPRPLTTPRP | -0.127
RRIRSRPPRLPRPRPRPLVNPRP | -0.138
RRIRSRPPRLPRPRPRPLWEPRP | -0.0343
RRIRSRPPRLPRPRPRPLWQPRP | 0.311
RRIRSRPPRLPRPRPRPMAVPRP | -0.000652
RRIRSRPPRLPRPRPRPMDGPRP | -0.095
RRIRSRPPRLPRPRPRPMEKPRP | -0.0205
RRIRSRPPRLPRPRPRPMEVPRP | -0.00803

Sequence | shrunken log2 fold change
RRIRSRPPRLPRPRPRPMGAPRP | 0.188
RRIRSRPPRLPRPRPRPMGLPRP | 0.101
RRIRSRPPRLPRPRPRPMHTPRP | -0.139
RRIRSRPPRLPRPRPRPMIMPRP | -0.0825
RRIRSRPPRLPRPRPRPMMGPRP | 0.0137
RRIRSRPPRLPRPRPRPMPCPRP | 0.216
RRIRSRPPRLPRPRPRPMPFPRP | -0.0591
RRIRSRPPRLPRPRPRPMSKPRP | -0.032
RRIRSRPPRLPRPRPRPMVLPRP | 0.114
RRIRSRPPRLPRPRPRPMVVPRP | 0.149
RRIRSRPPRLPRPRPRPMWTPRP | -0.0682
RRIRSRPPRLPRPRPRPNAHPRP | -0.184
RRIRSRPPRLPRPRPRPNAPPRP | 0.0774
RRIRSRPPRLPRPRPRPNAQPRP | 0.0609
RRIRSRPPRLPRPRPRPNCAPRP | -0.172
RRIRSRPPRLPRPRPRPNCCPRP | -0.105
RRIRSRPPRLPRPRPRPNDKPRP | -0.553
RRIRSRPPRLPRPRPRPNDQPRP | -0.102
RRIRSRPPRLPRPRPRPNELPRP | -0.295
RRIRSRPPRLPRPRPRPNESPRP | -0.153
RRIRSRPPRLPRPRPRPNFRPRP | -0.113
RRIRSRPPRLPRPRPRPNGFPRP | -0.0748
RRIRSRPPRLPRPRPRPNGRPRP | -0.0415
RRIRSRPPRLPRPRPRPNGTPRP | -0.188
RRIRSRPPRLPRPRPRPNINPRP | -0.612

Sequence | shrunken log2 fold change
RRIRSRPPRLPRPRPRPNIWPRP | -0.0665
RRIRSRPPRLPRPRPRPNLAPRP | -0.14
RRIRSRPPRLPRPRPRPNMVPRP | -0.0658
RRIRSRPPRLPRPRPRPNNHPRP | -0.276
RRIRSRPPRLPRPRPRPNPFPRP | -0.236
RRIRSRPPRLPRPRPRPNPHPRP | -0.139
RRIRSRPPRLPRPRPRPNQDPRP | -0.3
RRIRSRPPRLPRPRPRPNQHPRP | -0.201
RRIRSRPPRLPRPRPRPNQLPRP | -0.218
RRIRSRPPRLPRPRPRPNSHPRP | -0.402
RRIRSRPPRLPRPRPRPNSIPRP | -0.861
RRIRSRPPRLPRPRPRPNTTPRP | -0.194
RRIRSRPPRLPRPRPRPNWSPRP | -0.249
RRIRSRPPRLPRPRPRPNWYPRP | -0.382
RRIRSRPPRLPRPRPRPNYGPRP | -0.0945
RRIRSRPPRLPRPRPRPNYNPRP | -0.904
RRIRSRPPRLPRPRPRPPAAPRP | 1.1
RRIRSRPPRLPRPRPRPPAVPRP | 0.711
RRIRSRPPRLPRPRPRPPCPPRP | 0.319
RRIRSRPPRLPRPRPRPPDKPRP | 0.0307
RRIRSRPPRLPRPRPRPPDTPRP | 0.237
RRIRSRPPRLPRPRPRPPEIPRP | -0.19
RRIRSRPPRLPRPRPRPPGEPRP | 0.756
RRIRSRPPRLPRPRPRPPGMPRP | -0.0105
RRIRSRPPRLPRPRPRPPGRPRP | 0.482

Sequence | shrunken log2 fold change
RRIRSRPPRLPRPRPRPPGYPRP | 0.0642
RRIRSRPPRLPRPRPRPPHEPRP | 0.229
RRIRSRPPRLPRPRPRPPHSPRP | 0.113
RRIRSRPPRLPRPRPRPPHWPRP | 0.5
RRIRSRPPRLPRPRPRPPIGPRP | 0.297
RRIRSRPPRLPRPRPRPPKCPRP | -0.087
RRIRSRPPRLPRPRPRPPLIPRP | 0.191
RRIRSRPPRLPRPRPRPPLVPRP | -0.0483
RRIRSRPPRLPRPRPRPPLYPRP | -0.0605
RRIRSRPPRLPRPRPRPPMWPRP | 0.54
RRIRSRPPRLPRPRPRPPNEPRP | 0.0505
RRIRSRPPRLPRPRPRPPNHPRP | -0.16
RRIRSRPPRLPRPRPRPPNYPRP | -0.606
RRIRSRPPRLPRPRPRPPPNPRP | 0.707
RRIRSRPPRLPRPRPRPPQHPRP | 0.184
RRIRSRPPRLPRPRPRPPRSPRP | 0.483
RRIRSRPPRLPRPRPRPPRVPRP | 0.142
RRIRSRPPRLPRPRPRPPSCPRP | -0.0434
RRIRSRPPRLPRPRPRPPSHPRP | 0.103
RRIRSRPPRLPRPRPRPPTQPRP | 0.356
RRIRSRPPRLPRPRPRPPVEPRP | -0.0919
RRIRSRPPRLPRPRPRPPVMPRP | 0.0439
RRIRSRPPRLPRPRPRPPVYPRP | 0.0599
RRIRSRPPRLPRPRPRPPWNPRP | 0.0621
RRIRSRPPRLPRPRPRPQASPRP | 0.552

Sequence | shrunken log2 fold change
RRIRSRPPRLPRPRPRPQAWPRP | -0.0983
RRIRSRPPRLPRPRPRPQCCPRP | -0.312
RRIRSRPPRLPRPRPRPQCSPRP | -0.0935
RRIRSRPPRLPRPRPRPQEDPRP | -0.244
RRIRSRPPRLPRPRPRPQFGPRP | 0.0239
RRIRSRPPRLPRPRPRPQFMPRP | -0.274
RRIRSRPPRLPRPRPRPQHDPRP | -0.227
RRIRSRPPRLPRPRPRPQHKPRP | -0.131
RRIRSRPPRLPRPRPRPQHLPRP | -0.372
RRIRSRPPRLPRPRPRPQILPRP | -0.0216
RRIRSRPPRLPRPRPRPQIWPRP | -0.167
RRIRSRPPRLPRPRPRPQKGPRP | -0.0456
RRIRSRPPRLPRPRPRPQKNPRP | -0.247
RRIRSRPPRLPRPRPRPQLLPRP | -0.182
RRIRSRPPRLPRPRPRPQMEPRP | 0.0832
RRIRSRPPRLPRPRPRPQNEPRP | -0.0107
RRIRSRPPRLPRPRPRPQNHPRP | -0.604
RRIRSRPPRLPRPRPRPQNNPRP | -0.573
RRIRSRPPRLPRPRPRPQPGPRP | 0.287
RRIRSRPPRLPRPRPRPQPIPRP | 0.000168
RRIRSRPPRLPRPRPRPQPKPRP | 0.526
RRIRSRPPRLPRPRPRPQQFPRP | -0.123
RRIRSRPPRLPRPRPRPQRWPRP | 0.319
RRIRSRPPRLPRPRPRPQSFPRP | -0.0939
RRIRSRPPRLPRPRPRPQSQPRP | -0.258

Sequence | shrunken log2 fold change
RRIRSRPPRLPRPRPRPQSRPRP | 0.0912
RRIRSRPPRLPRPRPRPQSVPRP | -0.138
RRIRSRPPRLPRPRPRPQTRPRP | 0.181
RRIRSRPPRLPRPRPRPQTTPRP | -0.237
RRIRSRPPRLPRPRPRPQTWPRP | -0.164
RRIRSRPPRLPRPRPRPQVGPRP | -0.175
RRIRSRPPRLPRPRPRPQVMPRP | -0.193
RRIRSRPPRLPRPRPRPQVNPRP | -0.00752
RRIRSRPPRLPRPRPRPRASPRP | 0.346
RRIRSRPPRLPRPRPRPRCPPRP | 0.177
RRIRSRPPRLPRPRPRPRDAPRP | 0.328
RRIRSRPPRLPRPRPRPRDYPRP | -0.341
RRIRSRPPRLPRPRPRPRECPRP | 0.71
RRIRSRPPRLPRPRPRPRFWPRP | 0.269
RRIRSRPPRLPRPRPRPRHAPRP | 0.39
RRIRSRPPRLPRPRPRPRHLPRP | -0.319
RRIRSRPPRLPRPRPRPRIAPRP | 0.174
RRIRSRPPRLPRPRPRPRIFPRP | 0.206
RRIRSRPPRLPRPRPRPRIMPRP | -0.105
RRIRSRPPRLPRPRPRPRKGPRP | 0.208
RRIRSRPPRLPRPRPRPRKLPRP | 0.316
RRIRSRPPRLPRPRPRPRKVPRP | 1.58
RRIRSRPPRLPRPRPRPRLSPRP | 0.00425
RRIRSRPPRLPRPRPRPRMAPRP | 1.31
RRIRSRPPRLPRPRPRPRMKPRP | -0.0423
